The RNAGym collection of RNA variant scans (doi:10.7554/elife.80360)

B1: CPEB3 Ribozyme (parent)
chain: GGGGGCCACAGCAGAAGCGUUCACGUCGCGGCCCCUGUCAGAUUCUGGUGAAUCUGCGAAUUCUGCUGU

Variants of: B1
Assay: self-cleavage, relative activity (ratio to wild type); higher = more cleavage; co-transcriptional

Variant	self-cleavage
G50U G58U	1.03
G50U G58A	0.948
U49C G68U	1.03
U49C G68A	1.01
U49C G68C	0.998
U49A C54A	0.641
U49A C54U	0.995
U49A C54G	0.947
U49C U53A	0.962
U49C U53C	0.948
U49C U53G	0.859
A51C C63U	0.942
A51C C63A	0.748
U49A G65A	0.934
U49A G65C	0.476
U49C C63A	0.882
U49C C63G	0.832
U49G A59C	0.68
U49G U64A	0.985
G48U U62C	0.929
G50C U64C	0.823

Variant	self-cleavage
G50C U64G	0.844
G50C C66U	0.981
G50C C66G	0.853
G50C C66A	0.728
U49A U62A	0.99
U49A U62C	0.825
G48U U55C	0.977
G48U U55G	0.968
G50U G68C	1.03
G50U G68A	1.01
G48U A59U	0.881
G48U A59C	0.739
U49A U53G	0.95
U49A U53A	0.984
A51C U61A	0.813
U49C C57U	0.345
U49C C57A	0.216
U49C C57G	0.265
G50U C54U	0.968
G50U C54A	0.858
G48C G58C	0.974

Variant	self-cleavage
G48C G58A	0.917
G48C U53C	0.96
G48C U53G	0.913
G48U U49C	0.981
G48U U49G	1.01
G48U U49A	1.02
G50C U55C	0.486
G50C U55G	0.685
G50C U55A	0.794
U49G U69G	1.02
A51C G58C	0.957
A51C G58A	0.92
A51C G58U	1.03
G48C U62G	0.913
U49G U62C	0.923
U49G U62G	0.898
U49G U62A	0.937
U49C C54U	0.965
U49C C54G	0.789
G48C U64C	0.938
G48U A52U	0.969

Variant	self-cleavage
G48U A52C	0.987
G48U A52G	0.983
U49A G56U	0.991
U49A G56A	1
U49C C66U	0.973
U49C C66G	0.879
G50U U61C	0.841
G50U U61A	0.97
G50U U61G	0.857
G50A G58U	1.02
G50A G58A	1.01
U49C G65U	0.79
U49C G65C	0.634
U49C G65A	0.89
G50U G56A	0.928
G50U G56U	0.91
G50A U67A	0.989
A51C G56A	0.856
A51C G56U	0.8
G48C G50C	0.944
